Measured values as given in patent publication US20190177704A1, “MODIFIED LUCIFERASE” (RIKEN, priority 2016, published 2019).

How the values were obtained:
Assay type in all cases: cell-based
[1] = Emission intensity of luciferase-expressing HeLa S3 cells with monoene OH; conditions: emission intensity of D-luciferin defined as 1
Description: (§1) A plasmid pcDNA3 was treated with use of BamHI and EcoRI, and genes encoding the respective luciferases above were each inserted into the plasmid pcDNA3 to produce plasmids for transfection.
(§2) HeLa S3 cells were used as mammalian cells to be transfected. For each of the luciferases above, HeLa S3 cells which had been cultured in D-MEM (low glucose, containing 10% FBS and 1% penicillin streptomycin, Wako Pure Chemical Industries, Ltd.) and were in an 80% confluent state were mixed with a transfection reagent (Polyethylenimine, Linear (MW 25,000, Polysciences, Inc)) and the plasmid for transfection (0.3 μg) to conduct transfection.
(§3) 24 hours after the transfection, the cells were dissociated through trypsinization, and were suspended in DMEM/F12 (10% FBS, gibco). Subsequently, centrifugation was conducted to remove the supernatant, and then the cells were resuspended in 1 mL DMEM/F12 so as to be used as luciferase-expressing cells.
(§4) In 1.5 mL Eppendorf tube, 20 μL of the produced luciferase-expressing cells and 80 μL of a substrate solution (prepared with pH 7.4 PBS) were mixed, and light emission from the obtained mixture was measured for one minute (with use of a luminometer AB-2280 manufactured by ATTO Corporation). An integrated value of the values thus measured within one minute was defined as the emission intensity.
(§5) Subsequently, with use of D-luciferin, AkaLumine, AkaLumine-OH, 6-AkaLumine, 0-AkaLumine, monoene NMe2, monoene NH2, monoene OH, and biphenyl as substrates, specificity to each of these substrates was evaluated. The substrates are respectively represented by the following chemical formulae. Each substrate solution contains a single kind of substrate.
(§6) Tables 3 through 8 show results of relative emission intensities in a case where the emission intensity of D-luciferin is defined as 1.

[2] = Emission intensity of luciferase-expressing HeLa S3 cells with 6-AkaLumine; conditions: emission intensity of D-luciferin defined as 1
Description: as §1, §2, §3, §4, §5, §6

[3] = Emission intensity of luciferase-expressing HeLa S3 cells with monoene NMe2; conditions: emission intensity of D-luciferin defined as 1
Description: as §1, §2, §3, §4, §5, §6

[4] = Emission intensity of luciferase-expressing HeLa S3 cells with D-luciferin; conditions: for relative emission intensity, Dluc: emission intensity of D-luciferin defined as 1; for D-luciferin emission intensity, relative value: relative to 1.0 = emission intensity of luc2 with AkaLumine, 80 μM substrate, integrated over one minute
Description: as §1, §2, §3, §4
(§7) As the substrate solution, AkaLumine or D-luciferin (80 μM each) was added. Results of the measurement of emission intensity are shown below in Table 2 as relative values with respect to 1.0 which is an emission intensity obtained in a case where AkaLumine was added to a sample of luc2.
as §5, §6

[5] = Emission intensity of luciferase-expressing HeLa S3 cells with monoene NH2; conditions: emission intensity of D-luciferin defined as 1
Description: as §1, §2, §3, §4, §5, §6

[6] = Emission intensity of luciferase-expressing HeLa S3 cells with AkaLumine; conditions: for relative emission intensity, AKA: emission intensity of D-luciferin defined as 1; for relative emission intensity, AKA / AkaLumine emission intensity, relative value: HeLa S3 cells; for AkaLumine emission intensity, relative value: relative to 1.0 = emission intensity of luc2 with AkaLumine, 80 μM substrate, integrated over one minute
Description: as §1, §2, §3, §4, §7, §5, §6

[7] = Emission intensity of luciferase-expressing HeLa S3 cells with biphenyl; conditions: emission intensity of D-luciferin defined as 1
Description: as §1, §2, §3, §4, §5, §6

[8] = Emission intensity of luciferase-expressing HeLa S3 cells with AkaLumine-OH; conditions: emission intensity of D-luciferin defined as 1
Description: as §1, §2, §3, §4, §5, §6

[9] = Emission intensity of luciferase-expressing HeLa S3 cells with 0-AkaLumine; conditions: emission intensity of D-luciferin defined as 1
Description: as §1, §2, §3, §4, §5, §6

Molecule	relative emission intensity, monoOH [1]	relative emission intensity, 6-AKA [2]	relative emission intensity, monoNMe2 [3]	relative emission intensity, Dluc [4]	relative emission intensity, monoNH2 [5]	relative emission intensity, AKA [6]	relative emission intensity, biph [7]	relative emission intensity, AKA-OH [8]	relative emission intensity, O-AKA [9]	D-luciferin emission intensity, relative value [4]	AkaLumine emission intensity, relative value [6]	AkaLumine/D-luciferin ([6]; ratio of relative emission intensities, Table 2)
N229Y_S347N: luc2 variant with N229Y and S347N mutations (SEQ ID NO: 2) (protein, Modified Luciferase) MEDAKNIKKGPAPFYPLEDGTAGEQLHKAMKRYALVPGTIAFTDAHIEVDITYAEYFEMSVRLAEAMKRYGLNTNHRIVVCSENSLQFFMPVLGALFIGVAVAPANDIYNERELLNSMGISQPTVVFVSKKGLQKILNVQKKLPIIQKIIIMDSKTDYQGFQSMYTFVTSHLPPGFNEYDFVPESFDRDKTIALIMNSSGSTGLPKGVALPHRTACVRFSHARDPIFGYQIIPDTAILSVVPFHHGFGMFTTLGYLICGFRVVLMYRFEEELFLRSLQDYKIQSALLVPTLFSFFAKSTLIDKYDLSNLHEIASGGAPLSKEVGEAVAKRFHLPGIRQGYGLTETTNAILITPEGDDKPGAVGKVVPFFEAKVVDLDTGKTLGVNQRGELCVRGPMIMSGYVNNPEATNALIDKDGWLHSGDIAYWDEDEHFFIVDRLKSLIKYKGYQVAPAELESILLQHPNIFDAGVAGLPDDDAGELPAAVVVLEHGKTMTEKEIVDYVASQVTTAKKLRGGVVFVDEVPKGLTGKLDARKIREILIKAKKGGKIAV	1.4 × 10^−2	9.6 × 10^2	2.4 × 10^2	1.0	1.7	6.4 × 10^3	6.9	2.1				
N229Y_H310Q_S347N: luc2 variant with N229Y, H310Q and S347N mutations (SEQ ID NO: 4) (protein, Modified Luciferase) MEDAKNIKKGPAPFYPLEDGTAGEQLHKAMKRYALVPGTIAFTDAHIEVDITYAEYFEMSVRLAEAMKRYGLNTNHRIVVCSENSLQFFMPVLGALFIGVAVAPANDIYNERELLNSMGISQPTVVFVSKKGLQKILNVQKKLPIIQKIIIMDSKTDYQGFQSMYTFVTSHLPPGFNEYDFVPESFDRDKTIALIMNSSGSTGLPKGVALPHRTACVRFSHARDPIFGYQIIPDTAILSVVPFHHGFGMFTTLGYLICGFRVVLMYRFEEELFLRSLQDYKIQSALLVPTLFSFFAKSTLIDKYDLSNLQEIASGGAPLSKEVGEAVAKRFHLPGIRQGYGLTETTNAILITPEGDDKPGAVGKVVPFFEAKVVDLDTGKTLGVNQRGELCVRGPMIMSGYVNNPEATNALIDKDGWLHSGDIAYWDEDEHFFIVDRLKSLIKYKGYQVAPAELESILLQHPNIFDAGVAGLPDDDAGELPAAVVVLEHGKTMTEKEIVDYVASQVTTAKKLRGGVVFVDEVPKGLTGKLDARKIREILIKAKKGGKIAV	1.3 × 10^−1	1.1 × 10^3		1.0	7.3 × 10^−1	4.1 × 10^3		1.4	2.1 × 10^−3			
Variant b: luc2 variant with the mutations of column b in Table 1 (SEQ ID NO: 5) (protein, Modified Luciferase) MEDAKNIKKGPAPFYPLEDGTAGEQLHKAMKRYALVPGAIAFTDAHIQVDVTYAEYFEMSVRLAEAMRRYGLNTNHRIVVCSENSLQFFMPVLGALFIGVAVAPANDIYNERELLNSMGISQPTVVFVSKKGLRKVLDVQKKLPIIRKIIIMDSKTDYQGFQSMYTFVASHLPPSFNEYDFVPECFDRDKTIALIMNSSGSTGLPKGVALPHRTACVRFSHARDPIFGYQNIPDTAILSVVPFHHGFGMFTTLGYLICGFRVVFMYRFEEELFLRSLQDYKIQSALLVPTLFSCLAKSTLIDKYDLSSLREIASGGAPLSKEVGEAVAKRFRLPGIRQGYGLTETTNAVMITPEGDRKPGSVGKVVPFFEAKVVDLVTGKTLGVNQRGELCVRGPMIMSGYVNNPEATNALIDKDGWLHSGDIAYWDEDEHFFIVDRLKSLIKYKGYQVAPAELEGILLQHPYIFDAGVAGLPDDDAGELPAAVVVLEHGKTMTEKEIVDYVASQVTTAKKLRGGVVFVDEVPRGPTGKLDARKIREILTKAKKDGKIAV	1.5 × 10^−2	8.1 × 10^2		1.0	1.2 × 10^−1	2.4 × 10^3	3.1	0.9		not detected	2.4	
Variant d: luc2 variant with the mutations of column d in Table 1 (SEQ ID NO: 7) (protein, Modified Luciferase) MEDAKNIKKGPAPFYPLEDGTAGEQLHKAMKRYALVPGAIAFTDAHIQVDVTYAEYFEMSVRLAEAMRRYGLNTNHRIVVCSENSSQFFMPVLGALFIGVAVAPANDIYNERELLNSMGISQPTVVFVSKKGLRKVLNVQKKLPIIRKIIIMDSKTDYQGFQSMYTFVTSHLPPSFNEYDFVPECFDRDKTIALIMNSSGSTGLPKGVALPHRTACVRFSHARDPIFGYQNIPDTAILSVVPFHHGFGMFTTLGYLICGFRVVLMYRFEEELFLRSLQDYKIQSALLVPAPFSCLAKSTLIDKYDLSSLREIASGGAPLSKEVGEAVAKRFRLPGIRQGYGLTETTNAVMITPEGDRKPGSVGKVVPFFEAKVVDLVTGKTLGVNQRGELCVRGPMIMSGYVNNPEATNALIDKDGWLHSGDIAYWDEDEHFFIVDRLKSLIKYKGYQVAPAELEGILLQHPYIFDAGVAGLPDDDAGELPAAVVVLEHGKTMTEKEIVDYVASQVTTAKKLRGGVVFVDEVPRGPTGKLDARKIREILTKAKKDGKIAV	7.1 × 10^−2	1.5 × 10^3	6.6	1.0	1.3 × 10^−1	3.4 × 10^3	7.5	9.8 × 10^−1		1.8 × 10^−3	6.1	3.4 × 10^3
Variant c: luc2 variant with the mutations of column c in Table 1 (SEQ ID NO: 6) (protein, Modified Luciferase) MEDAKNIKKGPAPFYPLEDGTAGEQLHKAMKRYALVPGAIAFTDAHIQVDVTYAEYFEMSVRLAEAMRRYGLNTNHRIVVCSENSSQFFMPVLGALFIGVAVAPANDIYNERELLNSMGISQPTVVFVSKKGLRKVLNVQKKLPIIRKIIIMDSKTDYQGFQSMYTFVTSHLPPSFNEYDFVPESFDRDKTIALIMNSSGSTGLPKGVALPHRTACVRFSHARDPIFGYQNIPDTAILSVVPFHHGFGMFTTLGYLICGFRVVLMYRFEEELFLRSLQDYKIQSALLVPTLFSCLAKSTLIDKYDLSSLREIASGGAPLSKEVGEAVAKRFRLPGIRQGYGLTETTNAVMITPEGDRKPGSVGKVVPFFEAKVVDLVTGKTLGVNQRGELCVRGPMIMSGYVNNPEATNALIDKDGWLHSGDIAYWDEDEHFFIVDRLKSLIKYKGYQVAPAELEGILLQHPYIFDAGVAGLPDDDAGELPAAVVVLEHGKTMTEKEIVDYVASQVTTAKKLRGGVVFVDEVPRGSTGKLDARKIREILTKAKKDGKIAV	1.1 × 10^−1	1.8 × 10^3		1.0	1.8 × 10^−1	9.0 × 10^3	4.1	1.8		not detected	6.8	
